Substitutions are numbered along the chain they refer to. Names may count otherwise.
B1: LSLt-ΔC-mIP5 2-K (Mus musculus) (protein)
chain: MEEGKMDENEWSYHGEGNKSLVVAHAQRCVVLRFLKFPPNKKKTSEEILQHLQNIVDFGKNVMKDFLGENYVHCGEVVQLPLEFVKQLCLKIQCERPESRCDKDLDTFSGYAMCLPNLTRLQTFHFAEHRPILCVEIKPKCGFIPFSNDVTHEMKHKVCRYCMHQHLKVATGKWKKISKYCPLDLYSGNKQRMHFALRSLLQETQNNLRIFKNGELIYGCGDARSPVADLKELAHHLKPFFFPSNGLASGPHCTKAVIRELVHVITRVLLSSSEKARAGALRLGLQGPRVCEASPFSRSLHNQGKNTSEHSGLPKGCLLYKTLQVQMLDQLDIEGLYPLYKRVEQYLEEFPEERKTLQIDGPYDEVFYQKLLDLSTEDDGTVAFALTKVQQYRVAMTAKDCSIMIALSPCLQGTSSDQRPVIPSSRSRLAFSVSVLDLDLKPYESIPHQYKLDSKIVNYYSKTVHAKD
notes: lacks the 21 C-terminal residues (stop codon at 469); LSLt (Laetiporus sulphureus lectin) tag kept; E. coli BL21 Star (DE3)
B2: LSLt-ΔC-mIP5 2-K (Mus musculus; K173A) (protein)
chain: B1 chain with K173A
notes: as for B1

How the values were obtained:
[1] = substrate: O=P(O)(O)O[C@@H]1[C@@H](OP(=O)(O)O)[C@H](OP(=O)(O)O)[C@H](O)[C@H](OP(=O)(O)O)[C@H]1OP(=O)(O)O; assay: HPLC of IP5-dependent ATP to ADP conversion; format: biochemical, Mus musculus; conditions: 50 μM ATP, 1 mM MgCl2, 20 mM Hepes, pH 7.3, 0.2–5 μM IP5
[2] = substrate: O=P(O)(O)O[C@@H]1[C@@H](OP(=O)(O)O)[C@H](OP(=O)(O)O)[C@H](O)[C@H](OP(=O)(O)O)[C@H]1OP(=O)(O)O; assay: HPLC of IP5-dependent ATP to ADP conversion; format: biochemical, Mus musculus; conditions: 50 μM ATP, 1 mM MgCl2, 20 mM Hepes, pH 7.3, 0.2–5 μM IP5; remark: listed apart in the source
Description: HPLC of IP5-dependent ATP to ADP conversion on LSLt-ΔC-mIP5 2-K | showing very similar kinetic parameters (Fig. 3A)

| Protein | Km [1] | Km [2] |
| --- | --- | --- |
| B1 | 0.29 µM |  |
| B2 |  | 0.2729 ± 0.0895 µM |

From publication PMC5481561, “The crystal structure of mammalian inositol 1,3,4,5,6-pentakisphosphate 2-kinase reveals a new zinc-binding site and key features for protein function” (The Journal of Biological Chemistry, 2017)
